{"source": "paper PMC4036818", "key": {"[1]": {"molecular_target": "native SARS-CoV 3CLpro (3C-like protease, nsp5) with an n-terminal methionine (SARS-CoV (Urbani strain)) (UniProt P0C6X7)", "assay": "enzyme activity against enzyme concentration"}, "[2]": {"molecular_target": "native SARS-CoV 3CLpro (3C-like protease, nsp5) with an n-terminal methionine (SARS-CoV (Urbani strain)) (UniProt P0C6X7)", "assay": "enzyme activity against enzyme concentration", "remark": "listed apart in the source"}}, "note": "Where two headings read alike, the source gives them in different places."}
{"substance": "native SARS-CoV 3CLpro (3C-like protease, nsp5) with an n-terminal methionine (from UniProt P0C6X7 3241-3544) (enzyme)", "values": [{"measurement": "Kd", "setting": "[1]", "result": "250 to 1000", "unit": "nM"}, {"measurement": "Kd", "setting": "[2]", "result": 230, "unit": "nM"}]}
